The values below come from patent US20250325667A1 (published 2025).

To fix the notation:
T1: HPV E7 peptide on HLA-A*11:01 (human)
T1 peptide: IVCPICSQK

B1: TCR123 (TCR, V domains shown)
Valpha: SQKIEQNSEALNIQEGKTATLTCNYTNYSPAYLQWYRQDPGRGPVFLLLIRENEKEKRKERLKVTFDTTLKQSLFHITASQPADSATYLCALAGYQKVTFGTGTKLQVIP
Vbeta: SQTIHQWPATLVQPVGSPLSLECTVEGTSNPNLYWYRQAAGRGLQLLFYSVGIGQISSEVPQNLSASRPQDRQFILSSKKLLLSDSGFYLCAWSLRTSGSEQFFGPGTRLTVL
B2: TCR074 (TCR, V domains shown)
Valpha: AQKITQTQPGMFVQEKEAVTLDCTYDTSDPSYGLFWYKQPSSGEMIFLIYQGSYDQQNATEGRYSLNFQKARKSANLVISASQLGDSAMYFCAMRIDAGGTSYGKLTFGQGTILTVHP
Vbeta: DAMVIQNPRYQVTQFGKPVTLSCSQTLNHNVMYWYQQKSSQAPKLLFHYYDKDFNNEADTPDNFQSRRPNTSFCFLDIRSPGLGDAAMYLCATSRDRVNTGELFFGEGSRLTVL
B3: TCR095 (TCR, V domains shown)
Valpha: GIQVEQSPPDLILQEGANSTLRCNFSDSVNNLQWFHQNPWGQLINLFYIPSGTKQNGRLSATTVATERYSLLYISSSQTTDSGVYFCAVEGDNAGGTSYGKLTFGQGTILTVHP
Vbeta: EAQVTQNPRYLITVTGKKLTVTCSQNMNHEYMSWYRQDPGLGLRQIYYSMNVEVTDKGDVPEGYKVSRKEKRNFPLILESPSPNQTSLYFCASSWSTSYGYTFGSGTRLTIV

The target of this test is T1, HPV E7 peptide on HLA-A*11:01. Put plainly: multimer staining.
Regarding B1, the binding result is given as “recognises”.

As for B2, the binding result is on record as “recognises”. As to B3, the binding result is reported as “recognises”.
